Assay results reported in patent US20110118447A1.

Key:
[1] = target: binding partner of C5A (XPA23); test: Biacore
[2] = target: binding partner (antigen) of C5A (XPA23); test: Biacore, K-off, fold vs original

B1: C5A (XPA23) VH P53G (antibody, V domains shown)
VH: EVQLLESGGGLVQPGGSLRLSCAASGFTFSKYFMFWVRQAPGKGLEWVSVISGSGGMTRYADSVKGRFTISRDNSKNTLYLQMNSLRAEDTAVYYCARVGYGGNSDYWGQGTLVTVSS
VL: DIQMTQSPSSVSASVGDRLTIICRASQDINRWLAWYQQTPGNAPKLLIHSATSLQSGVPSRFSGSGSGTDFTLTINSLQPEDFATYYCQQADSFPLTFGGGTKVEIK
[1]
  fold difference in affinity vs original: 0.02 fold
[2]
  fold difference in affinity vs original: 0.02 fold

B2: C5A (XPA23) VH P53V (antibody, V domains shown)
VH: EVQLLESGGGLVQPGGSLRLSCAASGFTFSKYFMFWVRQAPGKGLEWVSVISVSGGMTRYADSVKGRFTISRDNSKNTLYLQMNSLRAEDTAVYYCARVGYGGNSDYWGQGTLVTVSS
VL: DIQMTQSPSSVSASVGDRLTIICRASQDINRWLAWYQQTPGNAPKLLIHSATSLQSGVPSRFSGSGSGTDFTLTINSLQPEDFATYYCQQADSFPLTFGGGTKVEIK
[1]
  fold difference in affinity vs original: 1.1 fold
[2]
  fold difference in affinity vs original: 1.1 fold

B3: C5A (XPA23) VH G56I (antibody, V domains shown)
VH: EVQLLESGGGLVQPGGSLRLSCAASGFTFSKYFMFWVRQAPGKGLEWVSVISPSGIMTRYADSVKGRFTISRDNSKNTLYLQMNSLRAEDTAVYYCARVGYGGNSDYWGQGTLVTVSS
VL: DIQMTQSPSSVSASVGDRLTIICRASQDINRWLAWYQQTPGNAPKLLIHSATSLQSGVPSRFSGSGSGTDFTLTINSLQPEDFATYYCQQADSFPLTFGGGTKVEIK
[1]
  fold difference in affinity vs original: 1.71 fold
[2]
  fold difference in affinity vs original: 1.71 fold

B4: C5A (XPA23) VH G56A (antibody, V domains shown)
VH: EVQLLESGGGLVQPGGSLRLSCAASGFTFSKYFMFWVRQAPGKGLEWVSVISPSGAMTRYADSVKGRFTISRDNSKNTLYLQMNSLRAEDTAVYYCARVGYGGNSDYWGQGTLVTVSS
VL: DIQMTQSPSSVSASVGDRLTIICRASQDINRWLAWYQQTPGNAPKLLIHSATSLQSGVPSRFSGSGSGTDFTLTINSLQPEDFATYYCQQADSFPLTFGGGTKVEIK
[1]
  fold difference in affinity vs original: 1.21 fold
[2]
  fold difference in affinity vs original: 1.21 fold

B5: C5A (XPA23) VH S54P (antibody, V domains shown)
VH: EVQLLESGGGLVQPGGSLRLSCAASGFTFSKYFMFWVRQAPGKGLEWVSVISPPGGMTRYADSVKGRFTISRDNSKNTLYLQMNSLRAEDTAVYYCARVGYGGNSDYWGQGTLVTVSS
VL: DIQMTQSPSSVSASVGDRLTIICRASQDINRWLAWYQQTPGNAPKLLIHSATSLQSGVPSRFSGSGSGTDFTLTINSLQPEDFATYYCQQADSFPLTFGGGTKVEIK
[1]
  fold difference in affinity vs original: 0.06 fold
[2]
  fold difference in affinity vs original: 0.06 fold

B6: C5A (XPA23) VH S54G (antibody, V domains shown)
VH: EVQLLESGGGLVQPGGSLRLSCAASGFTFSKYFMFWVRQAPGKGLEWVSVISPGGGMTRYADSVKGRFTISRDNSKNTLYLQMNSLRAEDTAVYYCARVGYGGNSDYWGQGTLVTVSS
VL: DIQMTQSPSSVSASVGDRLTIICRASQDINRWLAWYQQTPGNAPKLLIHSATSLQSGVPSRFSGSGSGTDFTLTINSLQPEDFATYYCQQADSFPLTFGGGTKVEIK
[1]
  fold difference in affinity vs original: 1.43 fold
[2]
  fold difference in affinity vs original: 1.43 fold

B7: C5A (XPA23) VH S54A (antibody, V domains shown)
VH: EVQLLESGGGLVQPGGSLRLSCAASGFTFSKYFMFWVRQAPGKGLEWVSVISPAGGMTRYADSVKGRFTISRDNSKNTLYLQMNSLRAEDTAVYYCARVGYGGNSDYWGQGTLVTVSS
VL: DIQMTQSPSSVSASVGDRLTIICRASQDINRWLAWYQQTPGNAPKLLIHSATSLQSGVPSRFSGSGSGTDFTLTINSLQPEDFATYYCQQADSFPLTFGGGTKVEIK
[1]
  fold difference in affinity vs original: 1 fold
[2]
  fold difference in affinity vs original: 1 fold

B8: C5A (XPA23) VH S54V (antibody, V domains shown)
VH: EVQLLESGGGLVQPGGSLRLSCAASGFTFSKYFMFWVRQAPGKGLEWVSVISPVGGMTRYADSVKGRFTISRDNSKNTLYLQMNSLRAEDTAVYYCARVGYGGNSDYWGQGTLVTVSS
VL: DIQMTQSPSSVSASVGDRLTIICRASQDINRWLAWYQQTPGNAPKLLIHSATSLQSGVPSRFSGSGSGTDFTLTINSLQPEDFATYYCQQADSFPLTFGGGTKVEIK
[1]
  fold difference in affinity vs original: 1 fold
[2]
  fold difference in affinity vs original: 1 fold

B9: C5A (XPA23) VH G56L (antibody, V domains shown)
VH: EVQLLESGGGLVQPGGSLRLSCAASGFTFSKYFMFWVRQAPGKGLEWVSVISPSGLMTRYADSVKGRFTISRDNSKNTLYLQMNSLRAEDTAVYYCARVGYGGNSDYWGQGTLVTVSS
VL: DIQMTQSPSSVSASVGDRLTIICRASQDINRWLAWYQQTPGNAPKLLIHSATSLQSGVPSRFSGSGSGTDFTLTINSLQPEDFATYYCQQADSFPLTFGGGTKVEIK
[1]
  fold difference in affinity vs original: 1.41 fold
[2]
  fold difference in affinity vs original: 1.41 fold

B10: C5A (XPA23) VH P53I (antibody, V domains shown)
VH: EVQLLESGGGLVQPGGSLRLSCAASGFTFSKYFMFWVRQAPGKGLEWVSVISISGGMTRYADSVKGRFTISRDNSKNTLYLQMNSLRAEDTAVYYCARVGYGGNSDYWGQGTLVTVSS
VL: DIQMTQSPSSVSASVGDRLTIICRASQDINRWLAWYQQTPGNAPKLLIHSATSLQSGVPSRFSGSGSGTDFTLTINSLQPEDFATYYCQQADSFPLTFGGGTKVEIK
[1]
  fold difference in affinity vs original: 0.08 fold
[2]
  fold difference in affinity vs original: 0.08 fold

B11: C5A (XPA23) VH P53L (antibody, V domains shown)
VH: EVQLLESGGGLVQPGGSLRLSCAASGFTFSKYFMFWVRQAPGKGLEWVSVISLSGGMTRYADSVKGRFTISRDNSKNTLYLQMNSLRAEDTAVYYCARVGYGGNSDYWGQGTLVTVSS
VL: DIQMTQSPSSVSASVGDRLTIICRASQDINRWLAWYQQTPGNAPKLLIHSATSLQSGVPSRFSGSGSGTDFTLTINSLQPEDFATYYCQQADSFPLTFGGGTKVEIK
[1]
  fold difference in affinity vs original: 0.04 fold
[2]
  fold difference in affinity vs original: 0.04 fold

B12: C5A (XPA23) VH S54I (antibody, V domains shown)
VH: EVQLLESGGGLVQPGGSLRLSCAASGFTFSKYFMFWVRQAPGKGLEWVSVISPIGGMTRYADSVKGRFTISRDNSKNTLYLQMNSLRAEDTAVYYCARVGYGGNSDYWGQGTLVTVSS
VL: DIQMTQSPSSVSASVGDRLTIICRASQDINRWLAWYQQTPGNAPKLLIHSATSLQSGVPSRFSGSGSGTDFTLTINSLQPEDFATYYCQQADSFPLTFGGGTKVEIK
[1]
  fold difference in affinity vs original: 0.86 fold
[2]
  fold difference in affinity vs original: 0.86 fold

B13: C5A (XPA23) VH P53F (antibody, V domains shown)
VH: EVQLLESGGGLVQPGGSLRLSCAASGFTFSKYFMFWVRQAPGKGLEWVSVISFSGGMTRYADSVKGRFTISRDNSKNTLYLQMNSLRAEDTAVYYCARVGYGGNSDYWGQGTLVTVSS
VL: DIQMTQSPSSVSASVGDRLTIICRASQDINRWLAWYQQTPGNAPKLLIHSATSLQSGVPSRFSGSGSGTDFTLTINSLQPEDFATYYCQQADSFPLTFGGGTKVEIK
[1]
  fold affinity vs original: 0.05 fold
[2]
  fold difference in affinity vs original: 0.05 fold

B14: C5A (XPA23) VH P53A (antibody, V domains shown)
VH: EVQLLESGGGLVQPGGSLRLSCAASGFTFSKYFMFWVRQAPGKGLEWVSVISASGGMTRYADSVKGRFTISRDNSKNTLYLQMNSLRAEDTAVYYCARVGYGGNSDYWGQGTLVTVSS
VL: DIQMTQSPSSVSASVGDRLTIICRASQDINRWLAWYQQTPGNAPKLLIHSATSLQSGVPSRFSGSGSGTDFTLTINSLQPEDFATYYCQQADSFPLTFGGGTKVEIK
[1]
  fold difference in affinity vs original: 0.05 fold
[2]
  fold difference in affinity vs original: 0.05 fold

B15: C5A (XPA23) VH G55I (antibody, V domains shown)
VH: EVQLLESGGGLVQPGGSLRLSCAASGFTFSKYFMFWVRQAPGKGLEWVSVISPSIGMTRYADSVKGRFTISRDNSKNTLYLQMNSLRAEDTAVYYCARVGYGGNSDYWGQGTLVTVSS
VL: DIQMTQSPSSVSASVGDRLTIICRASQDINRWLAWYQQTPGNAPKLLIHSATSLQSGVPSRFSGSGSGTDFTLTINSLQPEDFATYYCQQADSFPLTFGGGTKVEIK
[1]
  fold difference in affinity vs original: 0.86 fold
[2]
  fold difference in affinity vs original: 0.86 fold

B16: C5A (XPA23) VH S54F (antibody, V domains shown)
VH: EVQLLESGGGLVQPGGSLRLSCAASGFTFSKYFMFWVRQAPGKGLEWVSVISPFGGMTRYADSVKGRFTISRDNSKNTLYLQMNSLRAEDTAVYYCARVGYGGNSDYWGQGTLVTVSS
VL: DIQMTQSPSSVSASVGDRLTIICRASQDINRWLAWYQQTPGNAPKLLIHSATSLQSGVPSRFSGSGSGTDFTLTINSLQPEDFATYYCQQADSFPLTFGGGTKVEIK
[1]
  fold affinity vs original: 0.87 fold
[2]
  fold difference in affinity vs original: 0.87 fold

B17: C5A (XPA23) VH P53W (antibody, V domains shown)
VH: EVQLLESGGGLVQPGGSLRLSCAASGFTFSKYFMFWVRQAPGKGLEWVSVISWSGGMTRYADSVKGRFTISRDNSKNTLYLQMNSLRAEDTAVYYCARVGYGGNSDYWGQGTLVTVSS
VL: DIQMTQSPSSVSASVGDRLTIICRASQDINRWLAWYQQTPGNAPKLLIHSATSLQSGVPSRFSGSGSGTDFTLTINSLQPEDFATYYCQQADSFPLTFGGGTKVEIK
[1]
  fold affinity vs original: 0.05 fold
[2]
  fold difference in affinity vs original: 0.05 fold

B18: C5A (XPA23) VH G55L (antibody, V domains shown)
VH: EVQLLESGGGLVQPGGSLRLSCAASGFTFSKYFMFWVRQAPGKGLEWVSVISPSLGMTRYADSVKGRFTISRDNSKNTLYLQMNSLRAEDTAVYYCARVGYGGNSDYWGQGTLVTVSS
VL: DIQMTQSPSSVSASVGDRLTIICRASQDINRWLAWYQQTPGNAPKLLIHSATSLQSGVPSRFSGSGSGTDFTLTINSLQPEDFATYYCQQADSFPLTFGGGTKVEIK
[1]
  fold difference in affinity vs original: 0.08 fold
[2]
  fold difference in affinity vs original: 0.08 fold

B19: C5A (XPA23) VH S54L (antibody, V domains shown)
VH: EVQLLESGGGLVQPGGSLRLSCAASGFTFSKYFMFWVRQAPGKGLEWVSVISPLGGMTRYADSVKGRFTISRDNSKNTLYLQMNSLRAEDTAVYYCARVGYGGNSDYWGQGTLVTVSS
VL: DIQMTQSPSSVSASVGDRLTIICRASQDINRWLAWYQQTPGNAPKLLIHSATSLQSGVPSRFSGSGSGTDFTLTINSLQPEDFATYYCQQADSFPLTFGGGTKVEIK
[1]
  fold difference in affinity vs original: 0.91 fold
[2]
  fold difference in affinity vs original: 0.91 fold

B20: C5A (XPA23) VH S54W (antibody, V domains shown)
VH: EVQLLESGGGLVQPGGSLRLSCAASGFTFSKYFMFWVRQAPGKGLEWVSVISPWGGMTRYADSVKGRFTISRDNSKNTLYLQMNSLRAEDTAVYYCARVGYGGNSDYWGQGTLVTVSS
VL: DIQMTQSPSSVSASVGDRLTIICRASQDINRWLAWYQQTPGNAPKLLIHSATSLQSGVPSRFSGSGSGTDFTLTINSLQPEDFATYYCQQADSFPLTFGGGTKVEIK
[1]
  fold affinity vs original: 1.07 fold
[2]
  fold difference in affinity vs original: 1.07 fold
